{"source": "paper PMC5687611", "key": {"[1]": {"target": "L3B3-hPD-L1 phage clone (displayed on M13 phage) (human) (UniProt Q9NZQ7)", "assay": "ELISA; inhibition phage ELISA: phage displaying hPD-L1 variants incubated with 1.6 µM non-biotinylated soluble hPD-1 for 1 h before adding to plates with captured biotinylated hPD-1"}, "[2]": {"target": "L3C7-hPD-L1 phage clone (displayed on M13 phage) (human) (UniProt Q9NZQ7)", "assay": "ELISA; inhibition phage ELISA: phage displaying hPD-L1 variants incubated with 1.6 µM non-biotinylated soluble hPD-1 for 1 h before adding to plates with captured biotinylated hPD-1"}}}
{"substance": "soluble non-biotinylated hPD-1 (residues 33-150, C93S) (from UniProt Q15116 33-150) (domain or fragment)", "values": [{"measurement": "inhibition rate at 1.6 µM soluble hPD-1", "setting": "[1]", "result": 86.7, "unit": "%"}, {"measurement": "inhibition rate at 1.6 µM soluble hPD-1", "setting": "[2]", "result": 82.6, "unit": "%"}]}
